B1: SplitCore183 (split subunit of coreN plus coreC183) (complex)
chain 1: MDIDPYKEFGATVELLSFLPSDFFPSVRDLLDTASALYREALESPEHCSPHHTALRQAILCWGELMTLATWVGVNLEDP
chain 2: MASRDLVVSYVNTNMGLKFRQLLWFHISCLTFGRETVIEYLVSFGVWIRTPPAYRPPNAPILSTLPETTVVRRRGRSPRRRTPSPRRRRSQSPRRRRSQSRESQC
B2: SplitCore149 (split subunit of coreN plus coreC149) (complex)
chain 1: MDIDPYKEFGATVELLSFLPSDFFPSVRDLLDTASALYREALESPEHCSPHHTALRQAILCWGELMTLATWVGVNLEDP
chain 2: MASRDLVVSYVNTNMGLKFRQLLWFHISCLTFGRETVIEYLVSFGVWIRTPPAYRPPNAPILSTLPETTVV
B3: HBc149H6 (contiguous truncated HBV core protein, aa 1-149, with C terminal His6) (domain or fragment)
chain: MDIDPYKEFGATVELLSFLPSDFFPSVRDLLDTASALYREALESPEHCSPHHTALRQAILCWGELMTLATWVGVNLEDPASRDLVVSYVNTNMGLKFRQLLWFHISCLTFGRETVIEYLVSFGVWIRTPPAYRPPNAPILSTLPETTVV

3 proteins from publication PMC3216493 (Scientific Reports, 2011) can be followed below.

The data set concerns the molecule itself. The data set can be described thus: native gel or EMSA. In general terms: In EMSA bound probe runs differently from free probe, usually more slowly.
Regarding B1, the binding result is recorded as “binds”.
Then B2, with “binds”; and B3, with “binds”.
